Test results as given in patent publication US10363306B2, “Cytokines and neuroantigens for treatment of immune disorders” (East Carolina University, priority 2009, dated 2019).
Ends that are not written are not given here.

B1: ss-IFNβ-6his: Rat IFNβ with 6-histidine sequence, lacking the EK linker (protein, UniProt P70499 22-184, looked up)
Interferon beta: IDYKQLQFRQSTSIRTCQKLLRQLNGRLNLSYRTDFKIPMEVMHPSQMEKSYTAFAIQVMLQNVFLVFRSNFSSTGWNETIVESLLDELHQQTELLEIILKEKQEERLTWVTSTTTLGLKSYYWRVQRYLKDKKYNSYAWMVVRAEVFRNFSIILRLNRNFQN
modifications: C-terminal 6His tag
B2: ss-IFNβ: Rat IFNβ without non-native C-terminal or N-terminal additions (protein, UniProt P70499 22-184, looked up)
Interferon beta: B1 Interferon beta

How the values were obtained:
Solubility of peptide = assay type: physicochemical; conditions: routinely reconstituted in saline
Protocol: A colony of Lewis rats was maintained at East Carolina University School of Medicine. Animal care and use was approved by the Institutional Animal Care and Use Committee and was performed in accordance with approved institutional guidelines. The synthetic peptide gp69-88 ([…]) (SEQ ID NO. 5) was obtained from Quality Controlled Biologicals, Inc. (Hopkinton, Mass.). The purity of gp69-88 was greater than 98%. […] The OX6 anti-I-A (RT1B) IgG1, the R73 anti-TCRβ IgG1, the OX81 anti-IL-4 IgG1, and the OX18 anti-MHC class I glycoproteins (MHC-I) (RT1A) IgG1 were concentrated by ultrafiltration of B cell hybridoma supernatants through Millipore spiral wound membranes (100 kd exclusion). Hybridomas were obtained from the European Collection of Cell Cultures. The B5 IgM anti-MHC-I (RT1A^a,b,l) mAb was purchased from BD Biosciences. FITC-conjugated goat anti-mouse IgG1 was purchased from Southern Biotechnology (Birmingham, Ala.).

BN-GP T cells = test: IFNβ anti-proliferative activity in IL-2 stimulated cultures of BN-GP T cells; assay type: cell-based, rat; conditions: expression supernatants, transient transfection of HEK293 cells
Protocol: FIG. 1. The IFNβ-NAg his-tagged fusion protein was biologically active and was purified on nickel resins. (A) To assess whether IFNβ-NAg induced class I MHC expression, thymocytes (5×10^6/ml in complete RPMI) were cultured with or without IFNβ-NAg for 2 days and then were stained with B5 (anti-MHC-I), OX18 (anti-MHC-I), R73 (anti-TCRβ), or OX81 (anti-IL4; isotype control) and were analyzed by flow cytometry. (B) To assess IFNβ-mediated anti-proliferative activity, supernatants from two independently derived IFNβ-NAg expression systems as well as supernatants from several control expression systems were added at designated titrations (x-axis) to IL-2 stimulated cultures of BN-GP T cells. (C) To assess the specificity of anti-proliferative activity, baculovirus supernatants containing IFNβ-NAg were added at designated titrations to cultures of rat (R1T, BN-GP, RsL.11T, RsL.11, or Conal.8D9) or mouse (CTLL) T cells. Proliferative assays (B & C) were pulsed with [^3H]thymidine on the second day of a 3-day culture. (D) Shown is a representative SDS-PAGE analysis of purified IFNβ-NAg.
FIG. 2. Structure-function analysis of the cytokine and NAg domains of IFNβ fusion proteins. (A) Expression supernatants containing designated IFNβ fusion proteins (see Table 2) were added to cultures of BN-GP T cells at designated titrations (x-axis). (B) The IFNβ-EK-NAg-6his or IFNβ-EK-6his fusion genes were inserted into the pCEP4 expression vector (Invitrogen). Inserts were verified by DNA sequencing, and the genes were expressed by transient transfection of HEK293 cells. Independently derived expression systems of IFNβ-EK-NAg-6his or IFNβ-EK-6his (3 each) were compared in the BN-GP T cell anti-proliferative assay. (C) Independently purified preparations (2 each) of each IFN-β fusion protein (IFNβ-NAg from HEK293 cells, IFNβ-NAg from baculovirus, and IFN-β from HEK293 cells) were added at designated concentrations to assess anti-proliferative activity. Two independently purified preparations of the same fusion protein were tested to verify the reliability of activity for each type of protein. The x-axis was based on the exponent of the molar concentration. For example, a concentration of 100 nM was represented as Log [10^−7]=Log10) (10^−7M)=−7 and was plotted by the exponent of −7. For these experiments (A-C), BN-GP T cells were cultured in IL-2. (D) The MBP-specific RsL.11 T cell clone and irradiated splenic APC were cultured with designated concentrations of purified IFNβ-NAg or GPMBP in the presence or absence of the OX6 anti-MHC-II mAb. (E) Five preparations of purified IFNβ-NAg and six preparations of purified IFN-β were tested for antigenic activity in cultures of RsL.11 T cells and irradiated splenic APC.
The RsL.11 MBP-specific clone was a stable, IL-2 dependent line derived from Lewis rats sensitized with rat MBP in CFA (Mannie, M. D., and M. S. Norris. 2001. MHC class-II-restricted antigen presentation by myelin basic protein-specific CD4+ T cells causes prolonged desensitization and outgrowth of CD4-responders. Cell Immunol 212:51-62). The RsL.11T clone was a transformed variant of the RsL.11 clone. […]

Molecule | solubility (Solubility of peptide) | Biological activity of IFNβ in expression supernatants (BN-GP T cells)
YGSLPQKSQRSQDENPVVHF [NAg] | freely soluble | –
B1 | – | Weak activity
B2 | – | Potent activity
